The target of the data set is APC (full-length; APC-TMR when labeled) (Mus musculus, UniProt Q61315 1-2845). The data set is described as follows: single-molecule TIRF-M co-diffusion on microtubules.
APC (full-length; APC-TMR when labeled), sequence (Q61315 whole entry, the tested form may be a part): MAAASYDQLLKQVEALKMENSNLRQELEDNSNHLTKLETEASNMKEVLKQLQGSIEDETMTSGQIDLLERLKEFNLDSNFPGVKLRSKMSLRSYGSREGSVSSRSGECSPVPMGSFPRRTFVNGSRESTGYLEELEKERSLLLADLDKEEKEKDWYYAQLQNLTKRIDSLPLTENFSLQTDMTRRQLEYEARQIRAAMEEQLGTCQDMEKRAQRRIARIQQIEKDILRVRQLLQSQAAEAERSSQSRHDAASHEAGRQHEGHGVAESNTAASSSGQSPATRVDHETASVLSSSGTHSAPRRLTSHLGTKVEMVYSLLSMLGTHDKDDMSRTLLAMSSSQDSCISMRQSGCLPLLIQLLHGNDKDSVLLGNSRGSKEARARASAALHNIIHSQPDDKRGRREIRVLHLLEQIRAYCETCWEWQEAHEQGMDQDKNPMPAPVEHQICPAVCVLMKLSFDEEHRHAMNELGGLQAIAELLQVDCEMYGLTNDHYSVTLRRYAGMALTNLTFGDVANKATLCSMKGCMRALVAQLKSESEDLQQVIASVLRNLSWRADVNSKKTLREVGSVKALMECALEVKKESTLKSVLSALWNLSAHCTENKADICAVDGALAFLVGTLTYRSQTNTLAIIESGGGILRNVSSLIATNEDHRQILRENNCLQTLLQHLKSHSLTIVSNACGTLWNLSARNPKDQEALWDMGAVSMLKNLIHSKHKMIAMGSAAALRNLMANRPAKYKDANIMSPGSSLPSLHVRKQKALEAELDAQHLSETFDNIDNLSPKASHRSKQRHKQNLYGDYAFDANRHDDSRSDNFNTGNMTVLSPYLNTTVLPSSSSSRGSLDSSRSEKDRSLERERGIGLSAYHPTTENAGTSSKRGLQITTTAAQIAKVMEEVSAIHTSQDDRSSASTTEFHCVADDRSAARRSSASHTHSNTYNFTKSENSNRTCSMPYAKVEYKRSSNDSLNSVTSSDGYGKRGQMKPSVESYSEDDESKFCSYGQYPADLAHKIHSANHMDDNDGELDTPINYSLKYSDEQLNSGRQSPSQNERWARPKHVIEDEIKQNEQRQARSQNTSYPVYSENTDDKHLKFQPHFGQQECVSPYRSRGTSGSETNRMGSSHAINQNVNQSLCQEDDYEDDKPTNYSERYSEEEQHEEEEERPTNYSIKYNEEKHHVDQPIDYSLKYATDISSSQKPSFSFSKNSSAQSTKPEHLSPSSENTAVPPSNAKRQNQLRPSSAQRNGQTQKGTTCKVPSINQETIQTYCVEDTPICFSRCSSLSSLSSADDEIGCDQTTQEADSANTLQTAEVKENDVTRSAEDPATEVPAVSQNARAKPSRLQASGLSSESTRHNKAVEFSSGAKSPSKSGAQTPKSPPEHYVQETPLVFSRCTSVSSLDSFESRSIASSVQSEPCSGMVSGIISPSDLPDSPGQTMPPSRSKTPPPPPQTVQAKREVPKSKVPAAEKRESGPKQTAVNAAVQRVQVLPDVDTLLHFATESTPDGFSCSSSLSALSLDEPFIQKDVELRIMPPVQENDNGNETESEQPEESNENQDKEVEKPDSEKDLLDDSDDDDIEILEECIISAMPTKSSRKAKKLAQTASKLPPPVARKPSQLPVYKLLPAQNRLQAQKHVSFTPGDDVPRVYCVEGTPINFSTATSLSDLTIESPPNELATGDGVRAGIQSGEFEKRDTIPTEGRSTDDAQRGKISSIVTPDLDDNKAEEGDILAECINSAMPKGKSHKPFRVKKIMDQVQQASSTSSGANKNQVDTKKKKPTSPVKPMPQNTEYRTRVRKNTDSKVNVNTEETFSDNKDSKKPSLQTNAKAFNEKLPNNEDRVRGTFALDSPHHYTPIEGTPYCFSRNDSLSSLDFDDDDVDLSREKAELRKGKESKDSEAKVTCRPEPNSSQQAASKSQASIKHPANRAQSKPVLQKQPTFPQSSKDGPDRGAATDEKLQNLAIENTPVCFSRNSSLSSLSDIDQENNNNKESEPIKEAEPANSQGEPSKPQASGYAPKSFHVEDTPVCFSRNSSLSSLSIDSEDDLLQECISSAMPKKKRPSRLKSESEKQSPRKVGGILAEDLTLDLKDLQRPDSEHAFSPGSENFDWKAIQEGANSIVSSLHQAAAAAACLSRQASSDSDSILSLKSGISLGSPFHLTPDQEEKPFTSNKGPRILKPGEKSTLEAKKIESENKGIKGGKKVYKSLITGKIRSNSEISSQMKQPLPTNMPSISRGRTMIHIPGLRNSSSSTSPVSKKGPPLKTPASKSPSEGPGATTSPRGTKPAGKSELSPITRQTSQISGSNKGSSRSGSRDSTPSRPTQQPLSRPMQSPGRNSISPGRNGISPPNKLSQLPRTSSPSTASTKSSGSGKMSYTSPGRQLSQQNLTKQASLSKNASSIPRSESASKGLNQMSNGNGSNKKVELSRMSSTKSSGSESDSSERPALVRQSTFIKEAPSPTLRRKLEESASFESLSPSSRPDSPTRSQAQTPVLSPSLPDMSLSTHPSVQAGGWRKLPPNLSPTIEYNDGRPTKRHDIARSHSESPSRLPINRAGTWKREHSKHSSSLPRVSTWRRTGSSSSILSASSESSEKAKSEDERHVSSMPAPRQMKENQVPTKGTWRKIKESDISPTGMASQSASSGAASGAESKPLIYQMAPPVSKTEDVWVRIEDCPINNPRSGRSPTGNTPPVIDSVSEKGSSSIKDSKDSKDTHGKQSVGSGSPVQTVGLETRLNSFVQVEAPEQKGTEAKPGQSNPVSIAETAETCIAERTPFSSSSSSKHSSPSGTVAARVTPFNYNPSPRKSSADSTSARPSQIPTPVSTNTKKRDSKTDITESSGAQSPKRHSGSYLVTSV

B1: β2Btubwt (ssRNA)
RNA: GUUCCCCAGGCCAAGCAGGUUAGGGAAAGCUGAGAUGAAAGGAGGGGGUGGGGGGGCUUAAUCUGUGAAAAUACCUUGGCAGUUGAA
In the case of B1, the binding result is “binds”.

Values taken from article PMC7069705.
